Reference: patent US20210317176A1

Target: beta-klotho
Assay: cell-based or functional assay

Row | Substance | EC50 (ELK-luciferase assay) | Efficacy (ELK-luciferase assay)
1 | MKEDD.hFGF21.L15.hFc (Fc fusion) | 0.834 µM | 83.1%
2 | hFc.L15.hFGF21(1-178, L98R, P171G) (Fc fusion) | 0.167 µM | 63.9%
3 | hFc.L15.hFGF21(L98R, P171G) (Fc fusion) | 0.0025 µM | 76.1%
4 | hFc.L15.hFGF21(L98R, P171G, 1-179) (Fc fusion) | 0.0078 µM | 77.4%
5 | hFc.L15.hFGF21(L98R, P171G, A180E) (Fc fusion) | 0.0019 µM | 79.6%
6 | hFc.L15.hFGF21(L98R, P171G, A180G) (Fc fusion) | 0.00325 µM | 76.9%
7 | hFc.L15.hFGF21(L98R, P171G, A180P) (Fc fusion) | 0.617 µM | 77.1%
8 | hFc.L15.hFGF21(L98R, P171G, A180S) (Fc fusion) | 0.00218 µM | 84.7%
9 | hFc.L15.hFGF21(L98R, P171G, G182) (Fc fusion) | 0.0065 µM | 71.1%
10 | hFc.L15.hFGF21(L98R, P171G, GG182-3) (Fc fusion) | 1.94 µM | 84.2%
11 | hFc.L15.hFGF21(L98R, P171G, GGGGG182-6) (Fc fusion) | 4.31 µM | 99.7%
12 | hFc.L15.hFGF21(L98R, P171G, P182) (Fc fusion) | 0.0061 µM | 85.9%
13 | hFc.L15.hFGF21(L98R, P171G, S181A) (Fc fusion) | 0.00266 µM | 73.5%
14 | hFc.L15.hFGF21(L98R, P171G, S181G) (Fc fusion) | 0.00343 µM | 77.3%
15 | hFc.L15.hFGF21(L98R, P171G, S181K) (Fc fusion) | 0.13 µM | 87.9%
16 | hFc.L15.hFGF21(L98R, P171G, S181L) (Fc fusion) | 0.00346 µM | 72.6%
17 | hFc.L15.hFGF21(L98R, P171G, S181P) (Fc fusion) | 0.0338 µM | 79.5%
18 | hFc.L15.hFGF21(L98R, P171G, S181P, P182) (Fc fusion) | 0.272 µM | 69.9%
19 | hFc.L15.hFGF21(L98R, P171G, S181T) (Fc fusion) | 0.00307 µM | 77.6%
20 | hFc.L15.hFGF21(L98R, P171G, Y179A) (Fc fusion) | 0.0432 µM | 79.6%
21 | hFc.L15.hFGF21(L98R, P171G, Y179F) (Fc fusion) | 0.0026 µM | 78.3%
22 | hFc.L15.hFGF21(L98R, P171G, Y179G) (Fc fusion) | 0.061 µM | 82.6%
23 | hFc.L15.hFGF21(L98R, P171G, Y179P) (Fc fusion) | 0.428 µM | 44.4%
24 | hFc.L15.hFGF21(L98R, P171G, Y179S) (Fc fusion) | 0.0253 µM | 74.8%
